In this assay the target is recombinant HIV-1 integrase (HIV-1). The assay can be described thus: atomic force microscopy; 50 ng integrase incubated with 10 ng target DNA xkyk in binding buffer with MnCl2 at 30°C, dialysed against PBS 48 h at 4°C, digested with ScaI, adsorbed on mica with spermidine, tapping mode in air; size and volume of integrase bound on DNA (n = 123).

“And” between values parts separate entries of the source, which are not always exact repeats. Equal entries are not always repeated.

As for recombinant HIV-1 integrase (enzyme), the stoichiometry N is 2 and 4.

In general, stoichiometry N refers to the number of molecules, sites or subunits per partner or assembly.

Source of the values: publication PMC3544922.
